Our source for the Kd, koff and kon values is article PMC8921277.

This assay deals with RSV F DS-Cav1 (human respiratory syncytial virus) (UniProt P03420). Kind of assay: BLI; […] (AHC) biosensors, […] (300-0.41 nM); Octet RED96e; […].
Chain of UniProt P03420 (P03420 26-513): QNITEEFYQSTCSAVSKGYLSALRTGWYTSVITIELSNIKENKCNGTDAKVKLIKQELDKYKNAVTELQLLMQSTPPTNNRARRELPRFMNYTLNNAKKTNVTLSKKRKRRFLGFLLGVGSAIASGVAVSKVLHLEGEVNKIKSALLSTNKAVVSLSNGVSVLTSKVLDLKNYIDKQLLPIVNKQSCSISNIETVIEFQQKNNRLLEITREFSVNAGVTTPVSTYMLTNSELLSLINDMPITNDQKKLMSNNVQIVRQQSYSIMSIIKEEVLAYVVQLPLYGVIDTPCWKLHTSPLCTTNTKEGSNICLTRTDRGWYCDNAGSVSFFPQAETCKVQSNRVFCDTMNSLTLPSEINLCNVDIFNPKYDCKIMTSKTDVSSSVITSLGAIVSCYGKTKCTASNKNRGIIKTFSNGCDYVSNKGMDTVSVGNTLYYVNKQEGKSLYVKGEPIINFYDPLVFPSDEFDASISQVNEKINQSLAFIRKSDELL

Chain of MPE8 Fab (VH): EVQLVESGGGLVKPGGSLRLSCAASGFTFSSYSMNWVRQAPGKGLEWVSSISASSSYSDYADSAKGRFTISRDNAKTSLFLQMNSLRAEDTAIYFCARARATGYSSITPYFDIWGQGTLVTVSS
Chain of MPE8 Fab (VL): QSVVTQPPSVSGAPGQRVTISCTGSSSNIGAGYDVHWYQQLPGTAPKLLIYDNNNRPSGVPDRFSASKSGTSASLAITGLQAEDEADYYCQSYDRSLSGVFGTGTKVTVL

The substance MPE8 Fab registered a Kd of less than 1 pM, a koff of less than 1e-07 s⁻¹ and an association rate constant (kon) of 360000 M⁻¹ s⁻¹.
